Experimental data from a protein production outcome set (Wang et al. 2014).

Experiment: label from the status in PepcDB records

Row | Sequence | protein production
1 | MSSEVQKGPRALTVGRGDGRIWGMSSAERLARIYRRLDLVETPAVDLSHPVVAVDAGWVFDESLIKALAGREGAVLVDDAGRAVAVHAPADLAYAASEALAAGNDPAGLDPRFTRLTALELGSAYNSALRKREPPVLERLTPETVRAVEKRLFQGSYKGVTDFVTKYVWPAPARVVTRWCALAKMTPNQVTFIGFVMVLAATWLFWHGHFGWGLVCAWIMTFLDTVDGKLARVTLTSSKWGNVFDHGIDLVHPPFWWWAWFVGVYAVGQEIPYAALSLAIVVGGYVAQRVEEGIFLALFKLEMHAWRPFDSFFRLITARRNPNLILLTGCAMVGRPDLGFTLVAIWTAVCFVVHAIQILQGLMAPKGSIQSWLAK | failed
2 | MTPEALSFWTQADKPFLFLAACIELTNALAYGPGYVCGLPCSWDGSCSGAQHLCAATRSEDAWKVNLIGNDEVHDLYTIVGNAAKQSMARDTDPMVSTILAYEGDWRKVFKRNTMTTFYGSKGFGMAQQHMDDLMEPLSREVMQKKRAKHPFGQTRKEHHAASRLLAAHAAAAIKGEIPLAIKAMEFIQKLSAMMAHEGKPLEWTTPIGLPWSNRYHDPVTERVNLWMHDHGVRRPFRPVVADGYKKTINKNHSVNGSAPNFVHACDAAHLLRTVNAARAEGITQFALVHDSFGSLPSHAARFRQIIREEFVRMYEEHDVLTEVLEQAKCDLDEHNDKLSALVDMRADLTGKLNIKEVLNAEYAFAYPKLSEPDTKGEYADGKYKTEGTATEDYTERFQEEIQKVADDNFPGKKNVHLPWKETKEGDIAFIFKNPKKKPILTDSRGKPLKEGTVIRGGSKIRIAGVIAAWEKGAKRGVSLWPDAVRVIKLSEGFDANAAFGAAEDGFNADDYEPTNFGNDGEDADNDADDAEAGDDAFKLLEHHHHHH | not failed
3 | MARAPARARGSRGLNCLAGSQQTRIPAQETDDLFTTCQFGETEEDTAVEEAETIDCLSIPKQKLAQSQKKINQFINEKMSTKANKELIRCFILSQIVFGKEHWKCAQALANLAYGYLTLRGLPAQAKKHAESARNTLLTWKRNTTSDKEKKEILETLVILYYTLGIAWLLQNHGKQAYIHLQKAQRNMKELKELNNGSIYEIQVSDKDLTIALGRASLAMHRMHLALAYFEKAICGVILAKGHDTSDLISLYEEIAQIEQLRKNHEQAIQYLQQAYSISVSSFTEVSPQTAEASALLAKAYAMSGESQHRDAVEIYFIRSISTYQTLGSEDYETLTTIEDFCTWLIQNGEKQEAYRLLKSTLNSCTFGDCGKKVAETFYNMGSICFAKGELREAIALLRKCLMIQSLIYGSEHTKSIETKSLLSLLQRPISRFPRTAEQSHGVVARAQMSKISAGMALSASASHWNNQSQMSWDSACIPMGASVLYDTSFRNAVKYSLDCHGQQPEFLSCGGSAS | failed
4 | MENINFFIVFIEGILSIFSPCILPILPIYLSMLSNSSVEDIRDSNFKSGVLIRNTLFFTLGISTTFFILGSSISALSSFFNTNKNIIMILGGVIILFMGLFYLGVINLNILNREKRLNFKYKNMSPLSAFVLGFTFSFGWTPCIGPILASVLVMASSSKNLLMSNLLILVYTIGFILPFIIASLFYGKLFKKFDGIKKHMDLIKKISGIFIIIAGLIMLVGGIRNMNNEIKINNNPQINKSESANKDSKNESDNKKQEEGNKIPPIDFTLYDQYGNKHTLSEYKGKTIFLNFWATWCPPCRGEMPYIDELYKEYNENKDDVVILGVASPNLGREGSEEHIKNFLKEENHVFPVVLDENGAMVYQYGINAFPSTFIINKEGYITKYIPGAMTKETMKTLIESER | failed
5 | MKSLKGIIYAMISSGTFGLIPLFTIPLMGNMEMNESNILFYRFLFSTLMMGAVCLLHKSTLKINMKHLISIIGLGALYALTALFLIYSYHYITSGVATTIHFLYPICVSFLMVVFFKEQKSKSLFLAASLSLIGVALMCWSGGGSIRLMGIGLAALTILTYGIYIVALNQLDIGKLPAEVLTFYVLLGGCVIFFIYSLFTAGISSIPSTKAGFYILALAFLSTVISDLTLILAVKYAGSTTTAILGSMEPLVAVVVGVLVFSEHFTLQSLIGLLLILMSVIIVILADQQKKSKRITEQKIIKPH | failed
6 | MDKVFAPWRIEWVEREKTNPDVDCVFCAFQAQDDDRANNLVARSDHAFVLLNNYPYNPGHVMVIPHTHTGEYGDLDDKTLLDHGRLKQRTFDALETALSPDAFNAGLNLGGSAAGGSIDDHLHTHVVPRWNGDTNFMPVISDTKVIVEAVEETYDRLYAAFASQDGTTAPEDGAVRIE | failed
7 | MMAPPSQVQGRLSSSMNKSLALLTVTLLLGGCQSLIHKTPDGTPPVEDTAVETKAKPEKYGSFSEDSLYSLLVAELAGQRNRFDIALSNYVVQAQKTRDPGVSERAFRIAEYLGADQEALDTSLLWARSAPDNLDAQRAAAIQLARAGRYEESMVYMEKVLNGQGDTHFDFLALSAAETDPDTRAGLLQSFDHLLKKYPNNGQLLFGKALLLQQDGRPDEALTLLEDNSASRHEVAPLLLRSRLLQSMKRSDEALPLLKAGIKEHPDDKRVRLAYARLLVEQNRLDDAKAEFAGLVQQFPDDDDLRFSLALVCLEAQAWDEARIYLEELVERDSHVDAAHFNLGRLAEEQKDTARALDEYAQVGPGNDFLPAQLRQTDVLLKAGRVDEAAQRLDKARSEQPDYAIQLYLIEAEALSNNDQQEKAWQAIQEGLKQYPEDLNLLYTRSMLAEKRNDLAQMEKDLRFVIAREPDNAMALNALGYTLADRTTRYGEARELILKAHKLNPDDPAILDSMGWINYRQGKLADAERYLRQALQRYPDHEVAAHLGEVLWAQGRQGDARAIWREYLDKQPDSDVLRRTIKRLTGAETP | failed
8 | GGDTELSDSPTLPLNSILAGNCIEILKTLPDNSVDLIFADPPYNLQLSGELFRPEGSRVDAVNNAWDKFDTFAAYDHFTRLWLKEAHRVLKEDGTIWVIGSYHNIFRVGTALQDQGFWILNDIIWRKSNPMPNFKGRRFTNAHETLIWASKSDKSRYVFNYASLKTFNDDLQMRSDWLLPICSGNERLKGENGQKIHPTQKPEALLYRIILASSRPDDVILDPFFGTGTTGVIARHLRRHWIGIEQDPTYIKAAQARIDKAEVF | not failed
9 | MKETHNSQDRLAYLKQQLPADITRSVIDTLKEDLGGTLDPAADITASLIPADRISTATIITREAGVFCGQLWADEVFKQLGGQVSIEWHVQDGDTLTPNQTLCTLTGPARILLTGERNAMNFIQTLSGCATATARYVQELKGTQCRLLDTRKTIPGLRSALKYAVACGGGYNHRIGVFDAYLIKENHIIACGGIRQAISTAKQLNPGKPVEVETETLAELEEAISAGADIIMLDNFSLEMMREAVKINAGRAALENSGNITLDNLKECAETGVDYISVGALTKHLKALDLSMRFKS | not failed
10 | FHPVYSVQLEQKLVEKFNLKRALISLDQPNTNEQRKQVAALVSSYLNNNLQEGMAVAVGQGQNVAAVADHAGIVTQRNARFVSAIGGTHRSGDIINADHICRRLAKKYGGSSETLYAPAYVNDPSLRSAFMEHATIKETLSQARKAEFALVGIGDMDENSHMVKLGFFTPKEFVEARLNDGIVGDIGGFDFFKLDGTDADTLMRGRVIGLEMEDLRQIPNVVAMASESRKALSIMGALRTGVIDVLATSVSCAMALLNLAENEE | not failed
11 | MRFRNAILFVALAIAWGSAFTAIKAGLEYFPPILFAAFRYDLAGLLMLGYAVYATDQWVPKSRTDWIVVGIGGSLLIAAYHIFLFVGEQGTTSAAAAIVVSLSPILTTGFARAFLPDERLTTLGIVGLLVGFLGVGVLSNPDPGNLLNPRTVSLFLVFLAAASFALGSVLTRRFDDDLEIETMEAWSMLLGAVLMHGISFGVSESVADVQWTTEAVLALLYLVVVASALGFLIYFDLLERLGPIEINLVSYAAPVVAAATGLLFLSETPTVYTGVGFTCILVGFGLLKRDALRNEVARFSGTPNRGE | failed
12 | MKNIFLTMSLGIGLLFPCKLHAQSQYPFQNTTLSTEERVDDLIKRMTLEEKIDLLSGYNDFYLHPCERLGIPAFKLADGPLGVASWGLFGRATAFPSALSLAASWNKNLAEKTGAMYAQEWRARGIHFLLAPGVNNYRASKGARNFEYFGEDPYLASEMVVPFIKAVQDGGVIATIKHFAANDQEFDRYTVSTEVSERALQEIYLPPFKAAVQKAGVKAVMTGYNLVNGVYCTENKHLIDILKKDWGFKGMLMSDWACTYSAENAANYGLDLEMGSNDWFTRKELLPLVKEGKVTEEVINDKVRRIYGACISMGFFDRPQQDTDIPTFNPQANQMALNTACEGIILLKNEQNTLPIHRPKVIAVIGPTANPAIVSDRIYNVNSIVYGGGGSSKVHPWYVVSALEGIRQEFPEATVLYTEGISNQFKPRLFRNSKFRTKEGKPGLEANYYALSSDTSATLSDKMIQQQAVAAGRTVSVNQSADRTIETDKEESGLILRRTDRTVNYEWWGYPFNESKLGNDYRVCWEGYVDVEKTDSIRFFVDAQGAYRLWIDGTLALDASQSQSFDVRNTAISAKKGDAKHIRLEFCNQRSTPAEIRMGYAYQSDIDFSEAKRLAAKADLVVFCAGLDGSIELEGRDRPFDLPYGQDMLIQELVKVNPKLIVAIHAGGGINMTRWIDQVPAVVHALYPGQEGGHALAHILSGKVNPSAKLPFTIEKRWEDSPACGHYDETRKEKKVYYTEGIFTGYRGYDQKGIEPLFPFGFGLSYTTFDYSGLNIRMTDKKQKQLVVSFTVTNTGQRDGYEVAQLYVRDMQSKEPRPLKELKGFDKVYLKAGESKQIEIGLSEDAFQYFNAKQNRWVFEKGEFEILVGASSKDIRLAEKIKM | failed
13 | MKPTNKAQDDDAVFALSTEVNHKLDLHQSSAEALRLAGVYTRQSCVLDLYHGYRSDDEDTEPDEEDGRLQTVREYHENGMLKLMRTFVRRLRRDATDPTAESSYYDRVVEEKHYDPSGICRVDMHFALGQPYLYRKHYYPNNRLKSEKVFFVEDEETMRARKVGHWRTYYENGNIQSEIIYNKDGVRCGFCKRYAIDGAIEWVKDYTREQEERLQAFNAKRGNLDLTVTDAARVLGLEGDWCSHVVNRTFRSKCAPLHPDWRRTAGDKAGETWEEEQRTEAFIRLSRAREVLLKFLETHPRECSCERGGA | not failed
14 | MGVKFTLMGTTAGLGVPAFHCNCIACREARADPFWARTRSGAVLETGKENILIDASPDLSKQLLRERIQSVDYLFVTHWHYDHFGGIGDLEYYVKLERKWPVALFLPPSAVDDFAKVYPFLEEVFVIEPWEFGKSYAFEGIELTVLPARHSIETGGILLAGSKRAAYFTDTAGLPAPTARQLQGVDTLICDATFNGANWFPHSHMNWQEAIALGESIRAQHTVLTHLAMHYSTPITAAQLQEKLKDYAQVSLAYDGMVLTI | failed
15 | MTTPSASTRAVLEEACLSVGLDTTNAQPIRIAENAVWRLPGGVVVRVARPGQSAAAAREVQVARWLTAEGVPAVRALDLPQPVAASGHPVTFWQELPPHEIGTVTDVVVLLKQLHALPKPDLPLGELDPFVRLVERIDAAITISDDDQLWLKHRLEDLKQQWASRPKGLPECVVHGDAWVGNVARTEAGPMLLDFERASFGPPEWDLVSTAVKLTTTGAVSAEEYAAFCETYGVDVTEWEGYELLANARELRMVTYAAQHAASRPEWRREAQYRIDCLRGRAGAPPWRWKGII | failed
16 | MKVLRLGIVFQLLFVLLLTVGNFARIFIIDHYSVYPIAFFELFLGIGSLSCGVYGLIKTEKPILSLWLICFGLLICVFFIVVYLLPEGDIPPEITWFYSE | failed
17 | MLTDRELLILEEIVREYTENGQPIGSKTLMNNLPVKVSSATIRNDMAKLEEMGLIEKMHSSSGRIPSLMGYRYYVDHLLSPKKLNQSEAQQIQKGLGMHFREVDDIVRTSAEMLSNLTHYTALTLKPDQKDATLDGFRMVPLGGNQVMLILVSSNGDVTSQQFSIPRGMNSETVERVLRIMNDRLIGETLDQVYYHLKTDIPKIVEHYLHSNDGIIDIFENVVAQSSQDRYFIGGKLNILNFSKNVDVSSIRGLLTLFNENDQLDGLLGNNQSDLDVKIGDELSNALLKDFSLITATYDVGSRGKGLIAILGPTSMQYSKTLGLLDTFRDQLSNRMLEYYKHLDDS | failed
18 | MEEVKFYVRCYDKIELARMYFPNLSNPVSVAKLRRWMRNCMPLMEELMAGDFHPKMKMFSAREVRLIVRYLGEPDGYVFMHEHADVK | failed
19 | MGSKPSSLADEVAIIVEQVDKVMGMVFWCPLYWESIELLAKDEVSRAIFYGLTEGCKLDYLKYKTKASMVPEMTRFYS | not failed
